The values below come from patent US10400249B2, “HPPD variants and methods of use” (priority 2014, dated 2019).

Series [1] deals with soybean shoots. The experiment in a line: soybean transformation, greening or bleaching of shoots on isoxaflutole or tembotrione selection. The format is in vivo. As to conditions: selection amount of herbicide. From the text:
Soybean transformation is achieved using methods well known in the art, such as the one described using the Agrobacterium tumefaciens mediated transformation soybean half-seed explants using essentially the method described by Paz et al. (2006), Plant cell Rep. 25:206. Transformants were identified using tembotrione or isoxaflutole as selection marker. The appearance of green shoots was observed, and documented as an indicator of tolerance to the herbicide isoxaflutole or tembotrione.

Series [2] relates to maize T0 events. The experiment in a line: greenhouse spray test of maize T0 events for tolerance to Cmpd. 4. The format is in vivo. As to conditions: 25 g AI/ha.
The test system of series [3] is Pseudomonas fluorescens HPPD protein. Briefly: brown color assay: HPPD extracts spotted on solid media containing tyrosine and an HPPD inhibitor. The format is biochemical. As to conditions: TBT, DKN and mesotrione 500-2000 uM, compared with PfHPPD and PfEvo33. Here is the method: A specific, although non-limiting, type of assay that can be used to evaluate the HPPD sequences of the invention is a colorimetric assay. In this assay, a YT-broth-type culture medium with 1% agarose, 5 mM L-Tyrosine and 42 mM Succinate, which contains the selection agent for the vector pSE420 (Invitrogen, Karlsruhe, Germany) or a modified version of pSE420 (pSE420(RI)NX) is poured into deep well plates. E. coli culture in the exponential growth phase which contains the vector pSE420-HPPDx (HPPDx means any gene coding for a putative HPPD enzyme/protein) is applied to each well.
The HPPD PfEvo33 mutant (described in International Patent Application No PCT/US2013/59598 (filed on Sep. 13, 2013) and set forth herein as SEQ ID NO:5) was mutagenized at positions 334 and 336. Saturated mutagenesis of these positions was carried out using the QUIKCHANGE® lightning kit. Mutants were pooled and transformed into DH5alpha E. coli cells. Six hundred individual clones were screened for tolerance to the HPPD inhibitor tembotrione (TBT). The clones were grown in LB media plus kanamycin at 37 degrees C. in a shaker until an OD600 nm of 0.3 was reached. Cultures were then switched to 30 degrees C. and incubated for an additional 17 hours. Cultures were spun down and cell pellets resuspended in 10 mM Hepes/KOH pH 7.6, 4 mM MgCl2, 1 mM DTT. […]
The mutants were analyzed using a brown color assay. […]

The subject of series [4] is T0 soybean plants. Briefly: greenhouse spray test of T0 soybean plants for tolerance to mesotrione. It counts as in vivo. The conditions noted are these: mesotrione 3X field rate, 316 grams AI per hectare, seven days after treatment. How it is done: T0 soybean plants expressing an HPPD inhibitor tolerant enzyme of the present invention, along with a gene conferring tolerance to glyphosate and a gene conferring tolerance to glufosinate or having a “plant expression cassette”, which includes only an HPPD inhibitor tolerant enzyme of the present invention, were tested for tolerance to mesotrione. Prior greenhouse trials with the transgenic plants, soy transformants were routinely analyzed for the expression and presence of the transgenes using the ELISA protein detection method (see detailed description under item D and H). Only plants recovering in the selection media and having a detectable HPPD transgene protein expression were used for the herbicide tolerance analysis. A DeVries Tracker Sprayer was calibrated prior to each spraying. The chemical formulation used for mesotrione (MST) testing was Callisto® 4 SC formulation supplemented with ammonium sulfate and methylated rape seed oil (Actirob). Spray tests were conducted using 3× the field rate (equivalent to 9 fluid ounce per acre of the same herbicide formulation that containing 40% the active ingredient (AI), mesotrione), which equals 316 grams AI per hectare. Tolerance was evaluated one week after spraying. […] A tolerance rating of “0” was assigned to plants that their shoot apexes, newly emerged trifoliates and some axillary buds were completely bleached. A rating of “1” was assigned to plants having slight tolerance, i.e., the newest plant shoot tissues had some green leaves and are not bleached completely. A rating of “2” was assigned to plants showing moderate tolerance, i.e., more than 50% of the leaf area of the top three trifoliates showing no chlorosis or bleaching damage. A rating of “3” was assigned to plants showing nearly perfect tolerance, i.e., less than 10% of the leaf area showing chlorosis or very slight bleaching.

For series [5], the system named is Pseudomonas fluorescens HPPD protein. Briefly: OD assay: HPPD activity and pI50 from HPP remaining after derivatisation with DNP. It counts as biochemical. In short, it runs like this: (§1)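 Purified Pseudomonas fluorescens HPPD, room temperature. OD assay: 50 mM Tris-HCl pH 7.8, 0.5 mM HPP, 10 mM ascorbate, catalase, 24 min, remaining HPP derivatised with DNP, read at 405 nm, inhibitor 5.0×10^−6 to 5.0×10^−4 M. HGD assay: 200 mM Tris-HCl pH 7.6, 600 μM HPP, 20 μM FeSO4, coupled HGA dioxygenase, initial rates at 318 nm, inhibitor ≤100 μM, time-course gives inhibition type; pI50 from 4-parameter fits.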

Series [6] has the same test system. The experiment in a line: HGD assay: HPPD activity coupled to HGA dioxygenase, pI50 and type of inhibition (time-course). It counts as biochemical. A digest of the protocol:
as §1

Where [7] appears, read: HT-single plant expression cassette.
Where [8] appears, read: HT-triple plant expression cassette.

As for `CS(=O)(=O)c1ccc(C(=O)C2C(=O)CCCC2=O)c(Cl)c1COCC(F)(F)F` [tembotrione, 2-[2-chloro-4-(methylsulfonyl)-3-[(2,2,2,-trifluoroethoxy)methyl]benzoyl]-1,3-cyclo-hexanedione], the “appearance of wild-type soybean shoots treated with the herbicide” value in series [1] is recorded as “entirely bleached”.

Regarding `CSc1c(C(F)(F)F)ccc(C(=O)Nc2nnnn2C)c1Cl` [Cmpd. 4, 2-chloro-3-(methylsulfanyl)-N-(1-methyl-1H-tetrazol-5-yl)-4-(trifluoromethyl)benzamide], in series [2], the “leaf damage of control maize T0 events expressing EPSPS only, no HPPD variant” value came out at 100% and the “leaf damage of non-transformed maize plants” value is on record as 100%.

For `CS(=O)(=O)c1cc(C(F)(F)F)ccc1C(=O)c1cnoc1C1CC1` [isoxaflutole, (5-cyclopropyl-4-isoxazolyl)[2-(methylsulfonyl)-4-(trifluoromethyl)phenyl]methanone], the “appearance of wild-type soybean shoots treated with the herbicide” value in series [1] was “entirely bleached”.

B1: PfEvo44: PfHPPD variant E335P, G336Y (protein)
chain: MADLYENPMGLMGFEFIEFASPTPGTLEPIFEIMGFTKVATHRSKNVHLYRQGEINLILNNEPNSIASYFAAEHGPSVCGMAFRVKDSQKAYNRALELGAQPIHIDTGPMELNLPAIKGIGGAPLYLIDRFGEGSSIYDIDFVYLEGVERNPVGAGLKVIDHLTHNVYRGRMVYWANFYEKLFNFREARYFDIKGEYTGLTSKAMSAPDGMIRIPLNEESSKGAGQIEEFLMQFNGEGIQHVAFLTDDLVKTWDALKKIGMRFMTAPPDTYYEMLEGRLPDHGEPVDQLQARGILLDGSSVEGDKRLLLQIFSETLMGPVFFEFIQRKGDDGFGPYNFKALFESIERDQVRRGVLTAD
modifications: HPPD variant - PfEvo44
notes: PfHPPD variant E335P, G336Y
On to B1, for which the “brown color formation in presence of HPPD inhibitors” value in series [3] is “darkest color”. In series [4] (setting [7]), the “Number of T0 soybean plants with herbicide tolerance rating 0 (completely bleached)” value was found to be 7, the “Number of T0 soybean plants with herbicide tolerance rating 1 (slight tolerance)” value worked out at 14, the “Number of T0 soybean plants with herbicide tolerance rating 2 (moderate tolerance)” value is 43 and the “Number of T0 soybean plants with herbicide tolerance rating 3 (nearly perfect tolerance)” value is reported as 21. For the same molecule, in series [4] (setting [8]), the “Number of T0 soybean plants with herbicide tolerance rating 0 (completely bleached)” value amounted to 4, the “Number of T0 soybean plants with herbicide tolerance rating 1 (slight tolerance)” value came out at 22, the “Number of T0 soybean plants with herbicide tolerance rating 2 (moderate tolerance)” value stood at 19 and the “Number of T0 soybean plants with herbicide tolerance rating 3 (nearly perfect tolerance)” value amounted to 26. For the same molecule, the “Activity DeltaE/24 min μg Protein” value in series [5] (HPPD enzyme activity of the clone) is reported as 0.41 DeltaE/24 min μg Protein. Moreover, the “tolerance (pI50) DKN” value in series [5] (inhibitor diketonitrile (DKN), negative log of molar concentration) is recorded as 4.0. Further, the “tolerance (pI50) MST” value in series [5] (inhibitor mesotrione (MST)) worked out at 4.6. The “tolerance (pI50) TBT” value in series [5] (inhibitor tembotrione (TBT)) was more than 5.6. In series [6], the “mechanism of inhibition by diketonitrile (DKN), time-course of inhibition” value is “fully reversible inhibition”; the “mechanism of inhibition by mesotrione (MST), time-course of inhibition” value is listed as “fully reversible inhibition”; the “mechanism of inhibition by tembotrione (TBT), time-course of inhibition” value is given as “fully reversible inhibition”. The “tolerance (pI50) DKN” value in series [6] (inhibitor diketonitrile (DKN), HGD assay) is listed as 4.1. Besides, the “tolerance (pI50) MST” value in series [6] (inhibitor mesotrione (MST), HGD assay) worked out at 5.2. Also, in series [6] (inhibitor tembotrione (TBT), HGD assay), the “tolerance (pI50) TBT” value is 5.9.
